From patent publication US20250320291A1

Target: biotinylated CD19 (UniProt P15391)
Test: yeast surface display of the scFv, flow cytometry titration of biotinylated CD19, 1:1 equilibrium binding fit, mean±SD of 3 trials

Sequence of UniProt P15391 (P15391 20-291 limits assumed): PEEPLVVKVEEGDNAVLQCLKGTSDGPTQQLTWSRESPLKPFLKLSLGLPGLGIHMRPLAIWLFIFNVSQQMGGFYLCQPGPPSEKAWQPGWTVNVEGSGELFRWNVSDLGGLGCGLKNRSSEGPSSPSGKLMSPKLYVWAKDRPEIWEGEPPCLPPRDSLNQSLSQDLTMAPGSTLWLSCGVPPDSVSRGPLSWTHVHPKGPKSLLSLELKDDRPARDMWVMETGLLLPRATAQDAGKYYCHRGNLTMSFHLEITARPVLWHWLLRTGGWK

For FMC63 parental murine anti-CD19 scFv, the Kd was 4.8 nM.
